Reference: US20220411491A1 (Hoffmann-La Roche, published 2022)
Substitutions are numbered along the chain they refer to. Values belong to the binder of their own block, whether it stands above or below them.

Tests used:
[1] = target: T1, human GPRC5D (human, UniProt Q9NZD1 1-345); assay: cell-based or functional assay
[2] = target: T1, human GPRC5D; assay: cell-based or functional assay; remark: listed apart in the source

T1 sequence (Q9NZD1 whole entry): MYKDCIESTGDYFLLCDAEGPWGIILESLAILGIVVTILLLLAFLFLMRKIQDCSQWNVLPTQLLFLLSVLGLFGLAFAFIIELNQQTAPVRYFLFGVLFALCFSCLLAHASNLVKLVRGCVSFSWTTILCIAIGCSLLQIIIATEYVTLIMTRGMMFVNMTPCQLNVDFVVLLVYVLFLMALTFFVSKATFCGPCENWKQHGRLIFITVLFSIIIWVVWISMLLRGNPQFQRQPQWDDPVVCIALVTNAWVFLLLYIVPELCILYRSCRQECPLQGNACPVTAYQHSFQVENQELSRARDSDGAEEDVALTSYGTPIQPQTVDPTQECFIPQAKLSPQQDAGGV

CAR-J2 EC50 [1]: 5.6 ng/mL
B1: P1AE5728 (antibody, V domains shown)
VH: ELQLLESGGGLVQPGGSLRLSCAASGFTFSKYAMAWVRQAPGKGLEWVASISTGGVNTYYADSVKGRFTISRDNAKNTLYLQMNSLRAEDTAVYYCATHTGDYFDYWGQGTMVTVSS
VL: EIVLTQSPGTLSLSPGERATLSCRASQSVSISGINLMNWYQQKPGQQPRLLIYHASILASGIPDRFSGSGSGTDFTLTISRLEPEDFAVYYCQQTRESPLTFGQGTRLEIK

CAR-J2 EC50 [1]: 10.9 ng/mL
B5: P1AE5725 (antibody, V domains shown)
VH: B1 VH with L2V, A75S
VL: DIQMTQSPSSLSASVGDRVTITCRASQSVSISGINLMNWYQQKPGQQPKLLIYHASILASGVPSRFSGSGSGTDFTLTISSLQPEDFATYYCQQTRESPLTFGQGTRLEIK

CAR-J2 EC50 [1]: 3.6 ng/mL
B6: P1AE5724 (antibody, V domains shown)
VH: B1 VH with L2V, A75S
VL: B5 VL with Q46K

CAR-J2 EC50 [1]: 3.5 ng/mL
B7: P1AE5730 (antibody, V domains shown)
VH: B1 VH
VL: B5 VL with Q46K

CAR-J2 EC50 [1]: 2.3 ng/mL
B8: P1AE5731 (antibody, V domains shown)
VH: B1 VH
VL: B5 VL

CAR-J2 EC50 [1]: 61.3 ng/mL
B9: P1AE5729 (antibody, V domains shown)
VH: B1 VH
VL: B1 VL with R49K

Further lines, the binder ahead of its results:

B2: P1AE5718 (antibody, V domains shown)
VH: B1 VH with A61R, G66A
VL: B5 VL with Q46K
CAR-J2 EC50 [1]: 105 ng/mL

B3: P1AE5719 (antibody, V domains shown)
VH: B1 VH with A61R, G66A
VL: B5 VL
CAR-J2 EC50 [1]: 2.8 ng/mL

B4: P1AE5712 (antibody, V domains shown)
VH: B1 VH with L2V, A61R, G66A, A75S
VL: B5 VL with Q46K
CAR-J2 EC50 [1]: 16.1 ng/mL

B10: ET150-5-TCB (bispecific antibody, human IgG1, lambda, L234A L235A)
light 1: QSVLTQPPSASGTPGQRVTISCSGSRSNVGGNYVFWYQQVPGATPKLLIYRSNQRPSGVPDRFAGSKSGSSASLAISGLRSEDEADYYCATWDDSLSGFVFGTGTKVTVLGQPKAAPSVTLFPPSSKKLQANKATLVCLISDFYPGAVTVAWKADSSPVKAGVETTTPSKQSNNKYAASSYLSLTPEQWKSHRSYSCQVTHEGSTVEKTVAPTECS
light 2: EVQLLESGGGLVQPGGSLRLSCAASGFTFSTYAMNWVRQAPGKGLEWVSRIRSKYNNYATYYADSVKGRFTISRDDSKNTLYLQMNSLRAEDTAVYYCVRHGNFGNSYVSWFAYWGQGTLVTVSSASVAAPSVFIFPPSDEQLKSGTASVVCLLNNFYPREAKVQWKVDNALQSGNSQESVTEQDSKDSTYSLSSTLTLSKADYEKHKVYACEVTHQGLSSPVTKSFNRGEC
heavy 1: EVQLVESGGGLVKPGGSLRLSCAASGFTFSDYYMSWIRQAPGKGLEWVSYISSSGSTIYYADSVKGRFTISRDNAKNSLYLQMNSLRAEDTAVYYCARGYGKAYDQWGQGTLVTVSSASTKGPSVFPLAPSSKSTSGGTAALGCLVEDYFPEPVTVSWNSGALTSGVHTFPAVLQSSGLYSLSSVVTVPSSSLGTQTYICNVNHKPSNTKVDEKVEPKSCDKTHTCPPCPAPEAAGGPSVFLFPPKPKDTLMISRTPEVTCVVVDVSHEDPEVKFNWYVDGVEVHNAKTKPREEQYNSTYRVVSVLTVLHQDWLNGKEYKCKVSNKALGAPIEKTISKAKGQPREPQVCTLPPSRDELTKNQVSLSCAVKGFYPSDIAVEWESNGQPENNYKTTPPVLDSDGSFFLVSKLTVDKSRWQQGNVFSCSVMHEALHNHYTQKSLSLSPGK
heavy 2: not shown
EC50 of T cell mediated killing, AMO-1 cells (LDH release) [2]: 0.0835 nM
EC50 of T cell mediated killing, L363 cells (LDH release) [2]: 0.768 nM
EC50 of T cell mediated killing, NCI-H929 cells (LDH release) [2]: 0.833 nM
EC50 of T cell mediated killing, RPMI-8226 cells (LDH release) [2]: 0.797 nM
